How the values were obtained:
[1] = target: IL-2Rαβ subunits on U2OS cells; assay: cell-based or functional assay
[2] = target: IL-2Rβγ subunits on U2OS cells; assay: cell-based or functional assay
[3] = target: Rhesus IL-2Rβγ on CD8+ T and NK cells in whole blood (rhesus monkey)
[4] = target: Rhesus IL-2Rβγ on CD8+ T and NK cells in whole blood (rhesus monkey); remark: listed apart in the source
[5] = target: Human IL-2Rβγ on CD8+ T and NK cells in whole blood (human) (UniProt P14784)
[6] = target: Human IL-2Rβγ on CD8+ T and NK cells in whole blood (human) (UniProt P14784); remark: listed apart in the source
[7] = target: Cynomolgus IL-2Rα, polyhistidine-tagged (cynomolgus) (UniProt H6WS54); assay: SPR (Biacore T200), His-tagged receptor
[8] = target: Cynomolgus/Rhesus IL-2Rβ, polyhistidine-tagged (cynomolgus/rhesus) (UniProt Q38J85); assay: SPR (Biacore T200), His-tagged receptor
Cynomolgus/Rhesus IL-2Rβ, polyhistidine-tagged (cynomolgus/rhesus), sequence (Q38J85 27-240 limits assumed): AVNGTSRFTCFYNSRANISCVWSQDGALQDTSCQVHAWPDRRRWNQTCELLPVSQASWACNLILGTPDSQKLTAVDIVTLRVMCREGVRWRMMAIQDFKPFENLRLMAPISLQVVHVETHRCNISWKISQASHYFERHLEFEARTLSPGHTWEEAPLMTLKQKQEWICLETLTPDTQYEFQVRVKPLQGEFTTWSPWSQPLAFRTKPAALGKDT

[9] = target: Human IL-2Rα, polyhistidine-tagged (human) (UniProt P01589); assay: SPR (Biacore T200), His-tagged receptor
Human IL-2Rα, polyhistidine-tagged (human), sequence (P01589 22-213 limits assumed): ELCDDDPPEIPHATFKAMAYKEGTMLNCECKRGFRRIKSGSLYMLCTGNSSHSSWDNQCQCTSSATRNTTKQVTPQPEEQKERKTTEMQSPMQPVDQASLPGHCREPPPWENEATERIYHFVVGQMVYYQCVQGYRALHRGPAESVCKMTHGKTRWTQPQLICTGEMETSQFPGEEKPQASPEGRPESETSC

[10] = target: Human IL-2Rβ, polyhistidine-tagged (human) (UniProt P14784); assay: SPR (Biacore T200), His-tagged receptor
Human IL-2Rβ, polyhistidine-tagged (human), sequence (P14784 27-239 limits assumed): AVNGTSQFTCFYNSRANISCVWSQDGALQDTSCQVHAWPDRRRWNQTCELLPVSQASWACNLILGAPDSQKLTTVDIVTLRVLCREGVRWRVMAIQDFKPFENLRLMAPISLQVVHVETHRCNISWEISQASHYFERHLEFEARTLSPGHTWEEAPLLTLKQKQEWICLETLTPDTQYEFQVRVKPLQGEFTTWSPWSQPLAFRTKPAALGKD

[11] = target: Mouse IL-2Rα, polyhistidine-tagged (mouse) (UniProt P01590); assay: SPR (Biacore T200), His-tagged receptor
Mouse IL-2Rα, polyhistidine-tagged (mouse), sequence (P01590 22-236 limits assumed): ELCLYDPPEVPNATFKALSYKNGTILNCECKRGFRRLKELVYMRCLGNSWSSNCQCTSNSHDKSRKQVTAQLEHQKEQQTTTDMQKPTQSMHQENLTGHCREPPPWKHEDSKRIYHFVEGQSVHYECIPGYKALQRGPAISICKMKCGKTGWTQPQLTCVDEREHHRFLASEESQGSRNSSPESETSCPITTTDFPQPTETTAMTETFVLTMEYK

[12] = target: Rat IL-2Rα, polyhistidine-tagged (rat) (UniProt P26897); assay: SPR (Biacore T200), His-tagged receptor
Rat IL-2Rα, polyhistidine-tagged (rat), sequence (P26897 22-235 limits assumed): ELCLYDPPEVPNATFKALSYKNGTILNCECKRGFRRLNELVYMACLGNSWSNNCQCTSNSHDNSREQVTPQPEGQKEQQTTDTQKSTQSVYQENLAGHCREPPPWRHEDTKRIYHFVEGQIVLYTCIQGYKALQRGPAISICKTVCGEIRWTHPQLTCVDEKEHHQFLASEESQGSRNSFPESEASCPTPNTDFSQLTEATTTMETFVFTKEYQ

[13] = target: Rhesus IL-2Rα, polyhistidine-tagged (rhesus) (UniProt Q5MNY4); assay: SPR (Biacore T200), His-tagged receptor
Rhesus IL-2Rα, polyhistidine-tagged (rhesus), sequence (Q5MNY4 22-240 limits assumed): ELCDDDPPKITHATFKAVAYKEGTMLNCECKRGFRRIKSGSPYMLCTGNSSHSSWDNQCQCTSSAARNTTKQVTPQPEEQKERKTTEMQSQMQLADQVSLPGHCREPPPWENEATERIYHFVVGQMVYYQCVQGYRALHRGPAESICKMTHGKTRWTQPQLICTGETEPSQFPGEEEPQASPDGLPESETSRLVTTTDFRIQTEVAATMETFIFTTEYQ

[14] = target: Cynomolgus IL-2Rα, polyhistidine-tagged (cynomolgus) (UniProt H6WS54); assay: SPR (Biacore T200), ratio to human IL-2Rα
[15] = target: Human IL-2Rα, polyhistidine-tagged (human) (UniProt P01589); assay: SPR (Biacore T200), ratio to human IL-2Rα
[16] = target: Mouse IL-2Rα, polyhistidine-tagged (mouse) (UniProt P01590); assay: SPR (Biacore T200), ratio to human IL-2Rα
[17] = target: Rat IL-2Rα, polyhistidine-tagged (rat) (UniProt P26897); assay: SPR (Biacore T200), ratio to human IL-2Rα
[18] = target: Rhesus IL-2Rα, polyhistidine-tagged (rhesus) (UniProt Q5MNY4); assay: SPR (Biacore T200), ratio to human IL-2Rα
[19] = target: Cynomolgus/Rhesus IL-2Rβ, polyhistidine-tagged (cynomolgus/rhesus) (UniProt Q38J85); assay: SPR (Biacore T200), ratio to human IL-2Rβ
[20] = target: Human IL-2Rβ, polyhistidine-tagged (human) (UniProt P14784); assay: SPR (Biacore T200), ratio to human IL-2Rβ

Human IL-2Rβγ on CD8+ T and NK cells in whole blood (human), sequence (P14784 27-551, chain 1 of 2): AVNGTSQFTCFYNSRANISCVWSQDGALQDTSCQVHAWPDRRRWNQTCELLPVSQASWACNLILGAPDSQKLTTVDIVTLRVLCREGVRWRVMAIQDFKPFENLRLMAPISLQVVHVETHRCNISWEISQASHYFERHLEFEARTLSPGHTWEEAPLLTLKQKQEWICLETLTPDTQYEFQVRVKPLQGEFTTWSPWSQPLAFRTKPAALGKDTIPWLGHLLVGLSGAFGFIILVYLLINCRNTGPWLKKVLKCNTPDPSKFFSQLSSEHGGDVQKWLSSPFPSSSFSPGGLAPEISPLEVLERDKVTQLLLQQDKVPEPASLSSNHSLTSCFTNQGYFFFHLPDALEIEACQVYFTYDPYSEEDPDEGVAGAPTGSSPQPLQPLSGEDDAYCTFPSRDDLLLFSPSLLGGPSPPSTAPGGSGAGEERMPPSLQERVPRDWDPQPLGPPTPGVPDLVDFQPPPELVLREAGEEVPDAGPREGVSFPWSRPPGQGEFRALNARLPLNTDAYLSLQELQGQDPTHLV
Human IL-2Rβγ on CD8+ T and NK cells in whole blood (human), sequence (P31785 23-369, chain 2 of 2, further chain): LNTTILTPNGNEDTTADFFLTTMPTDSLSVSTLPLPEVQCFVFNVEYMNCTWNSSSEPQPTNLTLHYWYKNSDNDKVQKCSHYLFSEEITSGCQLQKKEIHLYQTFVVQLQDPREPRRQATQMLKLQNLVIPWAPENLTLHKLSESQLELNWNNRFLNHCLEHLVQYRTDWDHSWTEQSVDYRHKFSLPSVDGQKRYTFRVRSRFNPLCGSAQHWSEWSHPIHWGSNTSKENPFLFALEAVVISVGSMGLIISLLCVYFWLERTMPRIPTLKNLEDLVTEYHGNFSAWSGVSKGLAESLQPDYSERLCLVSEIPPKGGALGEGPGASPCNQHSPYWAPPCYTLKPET

Substance: R38Q/Y45F-IL-2 Fc, bivalent (Fc fusion)
- Ave. EC50 of engaging IL-2Rαβ subunits (receptor engagement study, N = 3) [1]: 7 nM
- Ave. EC50 of engaging IL-2Rβγ subunits (receptor engagement study, N = 3) [2]: 3.5 nM

Substance: R38Q/Y45F-IL-2 Fc, monovalent (from UniProt P01857 104-329) (Fc fusion)
- Ave. EC50 of engaging IL-2Rαβ subunits (receptor engagement study, N = 3) [1]: 400 nM
- Ave. EC50 of engaging IL-2Rβγ subunits (receptor engagement study, N = 3) [2]: 2 nM

Substance: WT-IL-2 Fc (from UniProt P01857 104-329) (Fc fusion)
- EC50; pSTAT5 normalized gMFI in CD8 cells, rhesus whole blood (Rh donor 20-1068), flow cytometry [3]: 4.05 nM
- EC50; pSTAT5 normalized gMFI in NK cells, rhesus whole blood (Rh donor 20-1068), flow cytometry [4]: 2.44 nM
- EC50; pSTAT5 normalized gMFI in CD8 cells, human whole blood (Hu donor 2), flow cytometry [5]: 1.41 nM
- EC50; pSTAT5 normalized gMFI in NK cells, human whole blood (Hu donor 2), flow cytometry [6]: 0.35 nM
- Kd [7]: 30 nM
- Kd [8]: 1300 nM
- Kd [9]: 28 nM
- Kd [10]: 940 nM
- Kd [11]: 29 nM
- Kd [12]: 87 nM
- Kd [13]: 49 nM
- KD/KD (hu) [14]: 1.1
- KD/KD (hu) [15]: 1
- KD/KD (hu) [16]: 1
- KD/KD (hu) [17]: 3.1
- KD/KD (hu) [18]: 1.8
- KD/KD (hu) [19]: 1.4
- KD/KD (hu) [20]: 1

Substance: Y45R-IL-2 Fc, bivalent (Fc fusion)
- Ave. EC50 of engaging IL-2Rαβ subunits (receptor engagement study, N = 3) [1]: 30 nM
- Ave. EC50 of engaging IL-2Rβγ subunits (receptor engagement study, N = 3) [2]: 2.3 nM
